Results: patent publication US8580258 (DEUTSCHES KREBSFORSCHUNGSZENTRUM STIFTUNG DES OFFENTLICHEN …, dated 2013)

B1: L1-9.3Hu single chain antibody (humanized L1-9.3Hu scFv fused to human c kappa constant region) (scFv)
scFv: DIQMTQSPSSLSASVGDRVTITCRASQDISNYLNWYQQKPGKAPKLLIYYTSRLHSGVPSRFSGSGSGTDYTFTISSLQPEDFATYFCQQGNTLPWTFGGGTKLEIKRTSGPGDGGKGGPGKGPGGEGTKGTGPGGEVQLVQSGGGLVQSGGSLRLSCRASGYTFTRYWMLWVRQRPGHGLEWVGEINPRNDRTNYNEKFKTRFTISVDRSKSTAYLQMDSLRAEDTAVYFCALGGGYAMDYWGQGTLVTVSSGGAAAAPSVFIFPPSDEQLKSGTASVVCLLNNFYPREAKVQWKVDNALQSGNSQESVTEQDSKDSTYSLSSTLTLSKADYEKHKVYACEVTHQGLSSPVTKSFNRGESHHHHHH
notes: The expressed portion may include the pelB leader
B2: L1-9.3Hu3 single chain antibody (humanized L1-9.3Hu3 scFv fused to human c kappa constant region) (scFv)
scFv: DIQMTQSPSSLSASVGDRVTITCRASQDISNYLNWYQQKPGKAPKLLIYYTSRLHSGVPSRFSGSGSGTDYTLTISSLQPEDFATYFCQQGNTLPWTFGGGTKLEIKRTSGPGDGGKGGPGKGPGGEGTKGTGPGGEVQLVQSGGGLVQSGGSLRLSCRASGYTFTRYWMLWVRQRPGKGLEWVAEINPRNDRTNYNEKFKTRFTISVDRSKNTLYLQMDSLRAEDTAVYFCALGGGYAMDYWGQGTLVTVSSGGAAAAPSVFIFPPSDEQLKSGTASVVCLLNNFYPREAKVQWKVDNALQSGNSQESVTEQDSKDSTYSLSSTLTLSKADYEKHKVYACEVTHQGLSSPVTKSFNRGESHHHHHH
notes: The expressed portion may include the pelB leader; also called L1-9Hu3
B3: monoclonal antibody L1-9.3, produced by the hybridoma cell deposited under DSMZ ACC2841 (antibody, V domains shown)
VH: QVQLQQPGAELVKSGASVNLSCRASGYTFTRYWMLWVRQRPGHGLEWVGEINPRNDRTNYNEKFKTKATLTVDRSSSTAYMQLTSLTSEDSAVYFCALGGGYAMDYWGQGTSVTVSS
VL: DIQMTQTTSSLSAFLGDRVTISCRASQDISNYLNWYQQKPDGTVKLLIYYTSRLHSGVPSRFSGSGSGTDYSLTISNLEQEDFATYFCQQGNTLPWTFGGGTKLEIK
B4: humanised antibody L1-hu3 (antibody, V domains shown)
VH: EVQLVQSGGGLVQSGGSLRLSCRASGYTFTRYWMLWVRQRPGKGLEWVAEINPRNDRTNYNEKFKTRFTISVDRSKNTLYLQMDSLRAEDTAVYFCALGGGYAMDYWGQGTLVTVSS
VL: DIQMTQSPSSLSASVGDRVTITCRASQDISNYLNWYQQKPGKAPKLLIYYTSRLHSGVPSRFSGSGSGTDYTLTISSLQPEDFATYFCQQGNTLPWTFGGGTKLEIK
B5: L1-9.3 single chain antibody (murine L1-9.3 scFv fused to human c kappa constant region) (scFv)
scFv: DIQMTQTTSSLSAFLGDRVTISCRASQDISNYLNWYQQKPDGTVKLLIYYTSRLHSGVPSRFSGSGSGTDYSLTISNLEQEDFATYFCQQGNTLPWTFGGGTKLEIKRTSGPGDGGKGGPGKGPGGEGTKGTGPGGQVQLQQPGAELVKSGASVNLSCRASGYTFTRYWMLWVRQRPGHGLEWVGEINPRNDRTNYNEKFKTKATLTVDRSSSTAYMQLTSLTSEDSAVYFCALGGGYAMDYWGQGTSVTVSSGGAAAAPSVFIFPPSDEQLKSGTASVVCLLNNFYPREAKVQWKVDNALQSGNSQESVTEQDSKDSTYSLSSTLTLSKADYEKHKVYACEVTHQGLSSPVTKSFNRGESHHHHHH
notes: The expressed portion may include the pelB leader, which is cleaved off

Tests used:
streptavidin = streptavidin (UniProt P22629 37-163, limits assumed); assay: ELISA, plate coated with streptavidin at 5 µg/ml, bacterial supernatants of 8 clones, anti-human kappa HRP conjugate, TMB
streptavidin, sequence (P22629 37-163 limits assumed): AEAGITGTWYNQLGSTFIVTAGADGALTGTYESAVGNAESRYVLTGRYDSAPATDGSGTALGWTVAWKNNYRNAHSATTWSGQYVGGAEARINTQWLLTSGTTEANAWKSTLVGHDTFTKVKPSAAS
Protocol: Three rows of a 96 well plate were coated with 100 μl L1 antigen comprising the extracellolar domain of the L1 protein fused to an Fc fragment (5 μg/ml) in PBS for 1 hr at room temperature. A further three rows were coated with streptavidin (5 μg/ml) in PBS as a control.
The 96 well plate was washed four times with PBS 0.1% tween followed by the addition of 100 μl of anti-human kappa light chains bound and free antibody HRP conjugate (Sigma A7164) 1:5000 dilution in PBS 1% BSA. The conjugate was incubated for 1 hr at room temperature followed by five washes with PBS 0.1% tween.
The ELISA was developed by the addition of TMB 2-Component Microwell Peroxidase Substrate Kit (Kirkegaard and Perry Laboratories Inc., USA) according to the manufacturer's protocol. At least four L1 binding clones have been observed for each of three single chain antibody versions.

[1] = target: T1, recombinant L1-Fc fusion protein (human L1-Fc protein comprising the ectodomain of L1) (human, UniProt P32004 20-1120); assay: Biacore SPR, L1-Fc on CM5 chip
T1 construct: extracellular domain; also called L-Fc; L1 antigen; not shown: Fc fragment
T1 sequence (P32004 20-1120): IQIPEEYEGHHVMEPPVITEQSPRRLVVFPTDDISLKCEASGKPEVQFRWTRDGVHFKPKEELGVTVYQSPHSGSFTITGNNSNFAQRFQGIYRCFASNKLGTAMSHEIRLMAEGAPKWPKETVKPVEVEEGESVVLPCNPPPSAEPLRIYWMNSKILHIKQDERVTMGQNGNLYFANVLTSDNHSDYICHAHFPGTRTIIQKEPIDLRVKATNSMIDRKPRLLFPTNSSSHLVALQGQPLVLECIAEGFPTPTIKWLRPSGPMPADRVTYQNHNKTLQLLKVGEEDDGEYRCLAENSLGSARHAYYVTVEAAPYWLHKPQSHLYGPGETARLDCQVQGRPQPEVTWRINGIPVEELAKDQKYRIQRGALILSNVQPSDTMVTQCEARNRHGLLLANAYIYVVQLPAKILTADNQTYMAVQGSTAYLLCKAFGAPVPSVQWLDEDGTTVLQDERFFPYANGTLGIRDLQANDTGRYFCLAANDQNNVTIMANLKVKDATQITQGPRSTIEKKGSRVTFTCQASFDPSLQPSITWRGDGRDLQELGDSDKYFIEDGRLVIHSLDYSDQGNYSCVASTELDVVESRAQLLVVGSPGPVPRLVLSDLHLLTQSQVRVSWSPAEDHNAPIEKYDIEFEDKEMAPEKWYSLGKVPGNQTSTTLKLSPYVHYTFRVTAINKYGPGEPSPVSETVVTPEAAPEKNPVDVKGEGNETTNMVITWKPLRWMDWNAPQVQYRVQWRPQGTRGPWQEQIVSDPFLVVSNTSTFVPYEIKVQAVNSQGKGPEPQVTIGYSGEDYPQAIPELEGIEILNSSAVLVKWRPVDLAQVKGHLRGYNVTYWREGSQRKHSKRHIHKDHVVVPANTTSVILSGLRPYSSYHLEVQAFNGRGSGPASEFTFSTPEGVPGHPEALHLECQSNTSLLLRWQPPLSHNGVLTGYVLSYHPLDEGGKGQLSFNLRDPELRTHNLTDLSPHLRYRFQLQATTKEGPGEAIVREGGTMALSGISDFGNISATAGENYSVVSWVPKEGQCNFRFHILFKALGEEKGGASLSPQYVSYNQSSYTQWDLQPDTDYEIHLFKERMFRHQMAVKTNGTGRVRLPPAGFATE

[2] = target: T1, recombinant L1-Fc fusion protein (human …); assay: Biacore SPR, L1-Fc coupled to CM5 chip, antibody as analyte 6-3333 nM

| Binder | binding result (streptavidin) | Kd [2] | koff [2] | kon [2] | also measured |
| --- | --- | --- | --- | --- | --- |
| B1 | no binding | – | – | – | – |
| B2 | no binding | – | – | – | – |
| B3 | – | 0.085 nM | 2.2e-05 s⁻¹ | 260000 M⁻¹ s⁻¹ | Kd [1]: 0.085 nM; koff [1]: 2.2e-05 s⁻¹; kon [1]: 260000 M⁻¹ s⁻¹ |
| B4 | – | 0.081 nM | 6.5e-05 s⁻¹ | 800000 M⁻¹ s⁻¹ | – |
| B5 | no binding | – | – | – | – |
